Assay results taken from publication PMC3774380.

Molecular target: L-glucagon (natural) (human) (UniProt P01275)
Assay: competitive pull-down
Conditions: all L-nucleotides, Selection buffer: 20 mM Tris pH 7.4, 150 mM NaCl, 5 mM KCl, 1 mM MgCl2, 1 mM CaCl2, 0.1% Tween 20, 0.1% CHAPS, 100 ug/ml HSA, 10 ug/ml yeast RNA, 37 C …

Chain of L-glucagon (natural) (human) (P01275 53-81): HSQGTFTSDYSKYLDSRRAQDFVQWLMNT

**Q.** Which Kd (ribonucleotides at positions 9, 15, 18, 19, 29, 30, rest deoxy) does the source give for “GCAGTGGGGAAATGGGAGGGCTAGGTGGAAGGAATCTGAGCTACTGC [L-257-E1-001-6xR]” here?
**A.** 6.4 nM

**Q.** For “GCAGTGGGGAAATGGGAGGGCTAGGTGGAAGGAATCTGAGCTACTGC [L-257-E1-001-R15/29/30]”, which Kd (ribonucleotides at positions 15, 29, 30, rest deoxy) is on record?
**A.** 20 nM

**Q.** Which Kd (ribonucleotides at positions 5, 11, 14, 15, 25, 26, rest deoxy) does the source give for “GCGGGAAATGGGAGGGCTAGGTGGAAGGAATCTGAGCGC [L-257-E1-030-6xR]” here?
**A.** 6.3 nM
